Values quoted from earlier work in paper PMC5431918 (Scientific Reports, 2017).

Description: As PAC1, VPAC1 and VPAC2 mRNAs were detected in a rat insulinoma cell line with PAC1 binding prevailing over that of VPAC1 and VPAC2[23], the PAC1 receptor seemed to be a promising alternative for targeting insulinomas. The natural mammalian ligands at the PAC1 receptor are PACAP38 and the truncated form PACAP27. They bind to PAC1, ...

| Substance | Stability in plasma |
| --- | --- |
| PACAP27: truncated form of PACAP38; non-selective PAC1/VPAC1/VPAC2 ligand | unstable in plasma |
| PACAP38: natural mammalian ligand at the PAC1 receptor; non-selective PAC1/VPAC1/VPAC2 ligand | unstable in plasma |
